Data as given in PMC8497999 (iScience, 2021).

Assays:
Experiment in all cases: SEC
SEC = target: the molecule itself
ACAD9-His6 R469W = target: T1, ACAD9-His6 R469W (human, UniProt Q9H845 38-621, R469W)
T1 sequence: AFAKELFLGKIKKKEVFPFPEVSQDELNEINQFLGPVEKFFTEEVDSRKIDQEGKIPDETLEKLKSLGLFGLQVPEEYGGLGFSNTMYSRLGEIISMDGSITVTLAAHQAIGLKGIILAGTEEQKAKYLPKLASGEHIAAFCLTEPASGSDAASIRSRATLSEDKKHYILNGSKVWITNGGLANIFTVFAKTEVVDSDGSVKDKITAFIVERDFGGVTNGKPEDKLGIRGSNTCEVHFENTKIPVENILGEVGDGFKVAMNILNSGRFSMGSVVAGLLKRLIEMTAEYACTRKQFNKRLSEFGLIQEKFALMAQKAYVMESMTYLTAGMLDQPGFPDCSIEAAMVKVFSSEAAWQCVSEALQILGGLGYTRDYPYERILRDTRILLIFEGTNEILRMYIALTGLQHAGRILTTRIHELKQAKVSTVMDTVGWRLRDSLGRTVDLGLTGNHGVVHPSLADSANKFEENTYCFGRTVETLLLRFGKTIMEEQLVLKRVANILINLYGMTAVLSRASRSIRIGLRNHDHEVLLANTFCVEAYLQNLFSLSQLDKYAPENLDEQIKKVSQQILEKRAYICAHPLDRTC

ACAD9-His6 R518H = target: T2, ACAD9-His6 R518H (human, UniProt Q9H845 38-621, R518H)
T2 sequence: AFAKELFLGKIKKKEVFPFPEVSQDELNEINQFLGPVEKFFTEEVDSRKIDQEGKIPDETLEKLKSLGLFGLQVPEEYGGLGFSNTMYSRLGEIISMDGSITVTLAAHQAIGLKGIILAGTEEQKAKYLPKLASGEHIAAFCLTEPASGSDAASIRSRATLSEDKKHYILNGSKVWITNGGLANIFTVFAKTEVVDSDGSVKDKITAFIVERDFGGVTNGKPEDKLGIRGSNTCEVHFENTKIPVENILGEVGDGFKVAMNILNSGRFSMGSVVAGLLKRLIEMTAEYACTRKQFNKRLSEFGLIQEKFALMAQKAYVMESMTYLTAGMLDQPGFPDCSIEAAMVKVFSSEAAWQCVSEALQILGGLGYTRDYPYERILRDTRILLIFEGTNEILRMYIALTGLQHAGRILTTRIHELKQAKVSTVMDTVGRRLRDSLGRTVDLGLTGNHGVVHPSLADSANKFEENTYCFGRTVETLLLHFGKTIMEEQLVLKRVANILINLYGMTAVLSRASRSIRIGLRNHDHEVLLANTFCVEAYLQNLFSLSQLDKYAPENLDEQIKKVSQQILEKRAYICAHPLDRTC

ACAD9-His6 R532W = target: T3, ACAD9-His6 R532W (human, UniProt Q9H845 38-621, R532W)
T3 sequence: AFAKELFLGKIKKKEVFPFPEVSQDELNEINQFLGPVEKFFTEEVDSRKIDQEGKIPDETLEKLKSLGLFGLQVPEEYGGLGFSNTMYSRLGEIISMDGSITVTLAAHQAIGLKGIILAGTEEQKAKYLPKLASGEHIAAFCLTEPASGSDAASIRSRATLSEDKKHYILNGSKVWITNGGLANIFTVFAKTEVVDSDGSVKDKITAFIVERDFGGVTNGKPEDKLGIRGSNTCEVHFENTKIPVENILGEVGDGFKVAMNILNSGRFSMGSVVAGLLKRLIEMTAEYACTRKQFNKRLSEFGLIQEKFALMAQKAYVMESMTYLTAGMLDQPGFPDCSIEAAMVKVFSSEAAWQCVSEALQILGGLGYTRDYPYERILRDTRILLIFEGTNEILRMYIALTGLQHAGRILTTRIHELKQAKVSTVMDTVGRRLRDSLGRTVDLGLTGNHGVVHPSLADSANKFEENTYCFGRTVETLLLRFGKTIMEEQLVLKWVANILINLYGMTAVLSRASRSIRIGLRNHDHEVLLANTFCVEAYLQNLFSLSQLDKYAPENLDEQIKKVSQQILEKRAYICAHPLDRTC

B1: His6-ECSIT (mature human mitochondrial ECSIT with N-terminal His tag) (natural protein)
chain: SSEQSLVPSPPEPRQRPTKALVPFEDLFGQAPGGERDKASFLQTVQKFAEHSVRKRGHIDFIYLALRKMREYGVERDLAVYNQLLNIFPKEVFRPRNIIQRIFVHYPRQQECGIAVLEQMENHGVMPNKETEFLLIQIFGRKSYPMLKLVRLKLWFPRFMNVNPFPVPRDLPQDPVELAMFGLRHMEPDLSARVTIYQVPLPKDSTGAADPPQPHIVGIQSPDQQAALARHNPARPVFVEGPFSLWLRNKCVYYHILRADLLPPEEREVEETPEEWNLYYPMQLDLEYVRSGWDNYEFDINEVEEGPVFAMCMAGAHDQATMAKWIQGLQETNPTLAQIPVVFRLAGSTRELQTSSAGLEEPPLPEDHQEEDDNLQRQQQGQS
With B1 the “stoichiometry N” value (SEC) was 2, the binding result (ACAD9-His6 R469W) was “binds” and the binding result (ACAD9-His6 R518H) was “binds”. B1: binds (ACAD9-His6 R532W).
